Numbering of substitutions follows the chain as printed. Names may count otherwise.

First the molecules themselves.
B1: H183/L072 VH F29A (antibody, name in Kabat numbering, V domains shown)
VH: QVQLVESGGGLVQPGRSLRLSCAASGFTASNAWMHWVRQAPGKGLEWVAQIKDKGNAYAAYYAPSVKGRFTISRDDSKNSIYLQMNSLKTEDTAVYYCHYVHYASASTVLPAFGVDAWGQGTTVTVSS
VL: DIVMTQSPLSLPVTPGEPASISCQASQELVHMNRNTYLHWYQQKPGQAPRLLIYKVSNRFPGVPDRFSGSGSGTDFTLKISRVEAEDVGVYYCAQGTSVPFTFGQGTKLEIK
B2: H183/L072 VH Q50A (antibody, name in Kabat numbering, V domains shown)
VH: B1 VH with A29F, Q50A
VL: B1 VL
B3: H183/L072 VH H35A (antibody, name in Kabat numbering, V domains shown)
VH: B1 VH with A29F, H35A
VL: B1 VL
B4: H183/L072 VH M34A (antibody, name in Kabat numbering, V domains shown)
VH: B1 VH with A29F, M34A
VL: B1 VL
B5: H183/L072 VH W33A (antibody, name in Kabat numbering, V domains shown)
VH: B1 VH with A29F, W33A
VL: B1 VL
B6: H183/L072 VH D52aA (antibody, name in Kabat numbering, V domains shown)
VH: B1 VH with A29F, D53A
VL: B1 VL
B7: H183/L072 VH K52A (antibody, name in Kabat numbering, V domains shown)
VH: B1 VH with A29F, K52A
VL: B1 VL
B8: H183/L072 VH N53A (antibody, name in Kabat numbering, V domains shown)
VH: B1 VH with A29F, N56A
VL: B1 VL
B9: H183/L072 VH W33I (antibody, name in Kabat numbering, V domains shown)
VH: B1 VH with A29F, W33I
VL: B1 VL
B10: dBBDu183H P100eY / dBBDu072L (antibody, name in Kabat numbering, V domains shown)
VH: B1 VH with A29F, P111Y
VL: B1 VL
B11: dBBDu183H D101Y / dBBDu072L (antibody, name in Kabat numbering, V domains shown)
VH: B1 VH with A29F, D116Y
VL: B1 VL
B12: dBBDu183H G100hY / dBBDu072L (antibody, name in Kabat numbering, V domains shown)
VH: B1 VH with A29F, G114Y
VL: B1 VL
B13: dBBDu183H V100iY / dBBDu072L (antibody, name in Kabat numbering, V domains shown)
VH: B1 VH with A29F, V115Y
VL: B1 VL
B14: dBBDu183H A102Y / dBBDu072L (antibody, name in Kabat numbering, V domains shown)
VH: B1 VH with A29F, A117Y
VL: B1 VL
B15: dBBDu183H A100fY / dBBDu072L (antibody, name in Kabat numbering, V domains shown)
VH: B1 VH with A29F, A112Y
VL: B1 VL
B16: dBBDu183H T100bY / dBBDu072L (antibody, name in Kabat numbering, V domains shown)
VH: B1 VH with A29F, T108Y
VL: B1 VL
B17: dBBDu183H L100dY / dBBDu072L (antibody, name in Kabat numbering, V domains shown)
VH: B1 VH with A29F, L110Y
VL: B1 VL

One test deals with Human CD137 ECD (human). As to the kind of experiment: single mutant vs template dBBDu183H.
Sequence of Human CD137 ECD (human) (chain, as listed by the source limits assumed): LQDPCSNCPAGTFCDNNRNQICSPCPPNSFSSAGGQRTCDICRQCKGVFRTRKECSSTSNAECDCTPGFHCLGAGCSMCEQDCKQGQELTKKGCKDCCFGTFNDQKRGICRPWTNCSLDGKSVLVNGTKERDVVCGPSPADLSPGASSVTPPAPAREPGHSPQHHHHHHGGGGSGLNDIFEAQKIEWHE
Turning to B1, the fold change of affinity was found to be 0 fold.
On the same count and under the same terms, the figure for B2 is 0 fold.
In the case of B3, the fold change of affinity came to 0 fold.
In the case of B4, the fold change of affinity is 0 fold.
Take B5: the fold change of affinity is 0 fold.
Still for that read-out and setting: the figure for B6 is 0 fold; for B7 it is 0 fold.
B8: the fold change of affinity worked out at 0 fold.
As to B9, the fold change of affinity was found to be 0 fold.

The target of a further test is Human CD137 ECD (human). The experiment in a line: SPR, vs parent H183/L072. (In general: Surface plasmon resonance follows binding to a sensor surface in real time, without labels.)
As to B10, the fold change of affinity was determined as 0 fold.
With B11, the fold change of affinity was 0 fold.
In the case of B12, the fold change of affinity came out at 0 fold.
Turning to B13, the fold change of affinity was determined as 0 fold.
Turning to B14, the fold change of affinity amounted to 0 fold.
For B15, the fold change of affinity stood at 0 fold.
For the molecule B16, the fold change of affinity is 0 fold.
On the same count and under the same terms, the value for B17 was 0 fold.

The values above are taken from patent publication US20210388087A1.
